We go through 2 molecules from paper PMC7218058 (2020).

The target of assay [1] is IgG4 allotypes (anti-RhD). Nature of the assay: SPR.
For assay [2], the target named is IgG2 allotypes (anti-RhD). Nature of the assay: SPR.

B1: human FcγRIIa 131His, biotinylated (receptor)
chain: QAAAPPKAVLKLEPPWINVLQEDSVTLTCQGARSPESDSIQWFHNGNLIPTHTQPSYRFKANNNDSGEYTCQTGQTSLSDPVHLTVLSEWLVLQTPHLEFQEGETIMLRCHSWKDKPLVKVTFFQNGKSQKFSHLDPTFSIPQANHSHSGDYHCTGNIGYTLFSSKPVTITVQVPSMGSSSPMG
modifications: biotin
Take B1: the Kd in assay [1] is > 1000 nM.

B2: human FcγRIa (his tag) (receptor)
chain: QVDTTKAVITLQPPWVSVFQEETVTLHCEVLHLPGSSSTQWFLNGTATQTSTPSYRITSASVNDSGEYRCQRGLSGRSDPIQLEIHRGWLLLQVSSRVFTEGEPLALRCHAWKDKLVYNVLYYRNGKAFKFFHWNSNLTILKTNISHNGTYHCSGMGKHRYTSAGISVTVKELFPAPVLNASVTSPLLEGNLVTLSCETKLLLQRPGLQLYFSFYMGSKTLRGRNTSSEYQILTARREDSGLYWCEAATEDGNVLKRSPELELQVLGLQLPTPVWFH
Regarding B2, the Kd in assay [2] was > 1000 nM.
